Assay results from paper PMC2959088.

Biological target: human cathepsin L (human)
Assay: enzyme inhibition assay (residual activity on the fluorogenic substrate Z-Phe-Arg-MCA); cathepsin B or L (0.3 nM) incubated 5 min at 37°C with varied inhibitor in 100 mM sodium acetate pH 5.5, 2.5 mM DTT; substrate 0.01 mM; triplicate; Ki(app) by non linear regression (GraFit), Ki by Morrison's procedure

B1: Oryzacystatin-1 (natural protein)
chain: MSSDGGPVLGGVEPVGNENDLHLVDLARFAVTEHNKKANSLLEFEKLVSVKQQVVAGTLYYFTIEVKEGDAKKLYEAKVWEKPWMDFKELQEFKPVDASANA
  Ki: 0.73 nM
